Results taken from publication PMC2922993.
One block for each substance: values may come before it.

Experiments:
[1] = biological target: JMJD2A double tudor domain (UniProt O75164); assay: ITC
[2] = biological target: inhibitor of growth 2 (ING2) PHD finger; assay: ITC
RAG2 PHD finger, 414-487 = RAG2 PHD finger, 414-487 (UniProt P21784); assay: ITC with soluble peptides; conditions: reference: unphosphorylated H3K4me3 peptide
ING2 PHD finger = ING2 PHD finger (UniProt Q9H160); assay: ITC with soluble peptides; conditions: reference: H3K4me3 peptide; sites T3

Sequence of JMJD2A double tudor domain (O75164 895-1011): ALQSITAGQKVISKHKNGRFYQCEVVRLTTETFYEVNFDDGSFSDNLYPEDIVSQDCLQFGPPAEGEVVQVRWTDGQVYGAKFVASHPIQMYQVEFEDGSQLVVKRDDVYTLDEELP

Kd [1]: 1.8 µM
Kd [2]: 19.9 µM
Substance: H3K4me3T6ph peptide (ITC)

KD (RAG2 PHD finger, 414-487; sites T6): lost; reference 17.8
Substance: histone H3 (from UniProt P68431) H3K4me3 peptide with T6ph

KD (RAG2 PHD finger, 414-487; sites T3): lost; reference 17.8
KD (ING2 PHD finger): lost; reference 0.98
Substance: histone H3 (from UniProt P68431) H3K4me3 peptide with T3ph
